# Where two headings read alike, the source gives them in different places. No end group written: not given here.
# Experiments:
# [1] = target: T1, human recombinant adrenomedullin receptor (CRLR+RAMP3) (human); experiment: cell-based or functional assay
# [2] = target: T1, human recombinant adrenomedullin …; experiment: cell-based or functional assay; remark: listed apart in the source
# T1 sequence (Q16602 whole entry, chain 1 of 2): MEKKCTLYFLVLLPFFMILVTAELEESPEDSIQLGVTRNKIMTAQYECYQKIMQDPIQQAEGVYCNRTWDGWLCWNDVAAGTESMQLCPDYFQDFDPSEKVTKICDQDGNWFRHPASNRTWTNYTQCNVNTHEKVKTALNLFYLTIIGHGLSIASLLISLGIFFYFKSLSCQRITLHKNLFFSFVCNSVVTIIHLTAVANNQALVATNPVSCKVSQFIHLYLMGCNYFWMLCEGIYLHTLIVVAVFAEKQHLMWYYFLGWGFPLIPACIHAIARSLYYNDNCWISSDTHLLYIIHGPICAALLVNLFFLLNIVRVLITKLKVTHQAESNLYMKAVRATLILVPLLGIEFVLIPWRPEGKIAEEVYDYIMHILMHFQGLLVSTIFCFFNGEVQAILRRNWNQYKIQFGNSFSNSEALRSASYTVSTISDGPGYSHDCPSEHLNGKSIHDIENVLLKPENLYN
# T1 sequence (O60896 whole entry, chain 2 of 2, further chain): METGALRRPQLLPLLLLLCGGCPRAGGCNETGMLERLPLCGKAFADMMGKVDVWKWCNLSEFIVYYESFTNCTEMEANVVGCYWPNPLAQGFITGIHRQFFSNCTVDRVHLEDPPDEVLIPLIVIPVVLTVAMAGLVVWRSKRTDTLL
Binder,"EC50 (read off the curve); cAMP HTRF assay, CHO-K1 cells with human CRLR+RAMP3 [1]","EC50 (read off the curve); cAMP HTRF assay, CHO-K1 cells with human CRLR+RAMP3 [2]"
mature human Adrenomedullin (Human ADM 1-52) (ends and bridges not checked) peptide: YRQSMNNFQGLRSFGCRFGTCTVQKLAHQIYQFTDKDKDNVAPRSKISPQGY-NH2,~1 nM,
YRQSMNQGSRSNGCRFGTCTFQKLAHQIYQLTDKDKDGMAPRNKISPQGY-NH2 (ends and bridges not checked) [Mouse ADM 1-50],,~0.08 nM
